Patent US20230181640A1 (SHANGHAI ABELZETA, published 2023)

T1: hBCMA-ECD-Fc (fusion protein of human BCMA extracellular domain Met1-Ala54 and human IgG1 Fc fragment … (human, UniProt Q02223 1-54))
T1 construct: range 1-54; also the immunogen; also called soluble extracellular domain of human BCMA; not shown: human IgG1 Fc fragment, Pro100-Lys330
T1 sequence (looked up): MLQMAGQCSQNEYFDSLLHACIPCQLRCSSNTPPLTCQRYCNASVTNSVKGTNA

T2: Recombinant human TACI/TNFRSF13B Fc chimeric protein, CF (hTACI-ECD-Fc) (human, UniProt O14836 1-165)
T2 construct: extracellular domain; bought reagent; not shown: Fc part of the bought chimera is not described
T2 sequence (looked up): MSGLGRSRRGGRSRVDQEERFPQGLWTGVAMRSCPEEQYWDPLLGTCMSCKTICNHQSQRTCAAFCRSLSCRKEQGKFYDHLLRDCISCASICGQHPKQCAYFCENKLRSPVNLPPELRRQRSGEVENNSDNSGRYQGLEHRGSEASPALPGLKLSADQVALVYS

T3: human BCMA on cells (L-BCMA+, K562-BCMA+, A549-BCMA-1D6) (human, UniProt Q02223 1-184)
T3 construct: whole, on cells; the cell line of each assay is named under assay; also called L-BCMA-1E6-A4; K562-BCMA-B22D8
T3 sequence (looked up): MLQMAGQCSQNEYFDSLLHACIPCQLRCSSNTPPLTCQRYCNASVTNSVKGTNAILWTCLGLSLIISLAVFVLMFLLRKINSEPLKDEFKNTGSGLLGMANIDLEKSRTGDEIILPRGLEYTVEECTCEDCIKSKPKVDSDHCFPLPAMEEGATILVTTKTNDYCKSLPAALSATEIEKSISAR


Experiments:
[1] = molecular target: T1, hBCMA-ECD-Fc (fusion protein of human …); test: ELISA, hybridoma supernatant
[2] = molecular target: T4, cynoBCMA-ECD-Fc (machin BCMA extracellular domain Fc fusion) (machin); test: ELISA, hybridoma supernatant
T4 construct: extracellular domain; also called soluble extracellular domain of machin BCMA

[3] = molecular target: T5, Recombinant hFc fusion protein control (NC-Fc); test: ELISA, hybridoma supernatant
T5 construct: negative control antigen of the screens; also called NC-hFc

[4] = molecular target: T1, hBCMA-ECD-Fc (fusion protein of human …); test: ELISA, purified hybridoma antibody
[5] = molecular target: T4, cynoBCMA-ECD-Fc (machin BCMA …); test: ELISA, purified hybridoma antibody
[6] = molecular target: T2, Recombinant human TACI/TNFRSF13B Fc …; test: ELISA, purified hybridoma antibody
[7] = molecular target: T3, human BCMA on cells (L-BCMA+, …); test: FACS, hybridoma supernatant, BCMA+ cells; note: test concentration or dose not given here
[8] = molecular target: T1, hBCMA-ECD-Fc (fusion protein of human …); test: ELISA, chimeric antibody supernatant; note: test concentration or dose not given here
[9] = molecular target: T3, human BCMA on cells (L-BCMA+, …); test: FACS, chimeric antibody supernatant, L-BCMA+ cells; note: test concentration or dose not given here

Row | Binder | ELISA (OD450 nm) [1] | ELISA (OD450 nm) [2] | ELISA (OD450 nm) [3] | EC50 [4] | EC50 [5] | binding result [6] | FACS (MFI) [7] | ELISA (OD450 nm) [8] | FACS (MFI) [9]
1 | hybridoma antibody 102A12H6 (mAb003) (antibody, IgG1, V domains shown, murine hybridoma antibody, IgG1,κ) VH: EVQLQQSGPELVKPGASVKISCKASGYSFTGYYMNWVKQSPEKSLEWIGEINSSTGGTTYNQKFKAKATMTVDKSSNTAYMELKSLTSEDSAVYYCRYYGSDWHFDVWGTGTTVTVSS VL: QIVLTQSPALMSASPGEKVTMTCSASSSVSYMYWYQQKPRSSPKPWIYLTSSLASGVPARFSGSGSGTSYSLTISTMEAEDAATYYCQQWSSDPLTFGAGTKLELK | 3.6 OD450 | 3.53 OD450 | 0.12 OD450 | 0.058 nM | 0.062 nM | no binding | 762 MFI |  | 
2 | hybridoma antibody 105C10F1 (mAb004) (antibody, IgG2b, V domains shown, murine hybridoma antibody, IgG2b,κ; re-named CP03; also called CP03) VH: EVKLLQSGGGLVQPGGSLKLSCAASGIDFSRYWMSWVRRAPGKGLEWIGEINPDSSTINYAPSLKDKFIISRDAAKNTLYLQMSKVRSEDTALYYCATLYYDYDGDYAMDYWGQGTSVTVSS VL: DIVMTPSQKFMSTSVGDRVSVTCKASQNVGTNVAWYQQKPGQSPKALIYSASYRYSGVPDRFTGSGSGTDFTLTISNVQSEDLAEYFCQHYNSYPFTFGSGTKLEIK | 3.42 OD450 | 0.18 OD450 | 0.1 OD450 | 0.038 nM |  | no binding | 1960 MFI |  | 
3 | chimeric antibody of hybridoma 105C10F1 (antibody, human IgG1, kappa, V domains shown, IgG1,κ chimeric antibody, HEK 293T supernatant) VH: EVKLLQSGGGLVQPGGSLKLSCAASGIDFSRYWMSWVRRAPGKGLEWIGEINPDSSTINYAPSLKDKFIISRDAAKNTLYLQMSKVRSEDTALYYCATLYYDYDGDYAMDYWGQGTSVTVSS VL: DIVMTPSQKFMSTSVGDRVSVTCKASQNVGTNVAWYQQKPGQSPKALIYSASYRYSGVPDRFTGSGSGTDFTLTISNVQSEDLAEYFCQHYNSYPFTFGSGTKLEIKR |  |  |  |  |  |  |  | 2.39 OD450 | 1800 MFI
4 | hybridoma antibody 99B3G3 (mAb002) (antibody, IgG1, V domains shown, murine hybridoma antibody, IgG1,κ; re-named CP02; also called CP02) VH: EVQLQQSGPVLVKPGASVKMSCKASGYTFTDLYMNWVKQSHGKSLEWIGVINPYNGGTSYNQKFKAKATLTVDKSSITAYMELNSLTSEDSAVYYCARGDSIYVMDYWGQGTSVTVSS VL: not shown | 3.68 OD450 | 3.65 OD450 | 0.14 OD450 | 0.032 nM | 0.23 nM | no binding | 1930 MFI |  | 
5 | hybridoma antibody 100H2D12C6 (mAb009) (antibody, IgG1, V domains shown, murine, IgG1,κ) VH: EVQLQQSGPVLVKPGASVKMSCKASGYTFTDLYMNWVKQSHGKSLEWIGVINPYNGGTSYNQKFKAKATLTVDKSSITAYMELNSLTSEDSAVYYCARGDSIYVMDYWGQGTSVTVSS VL: not shown | 3.37 OD450 | 3.48 OD450 | 0.13 OD450 | 0.033 nM | 0.033 nM | no binding | 1140 MFI |  | 
6 | chimeric antibody of hybridoma 99B3G3 (antibody, human IgG1, kappa, V domains shown, IgG1,κ chimeric antibody, HEK 293T supernatant) VH: EVQLQQSGPVLVKPGASVKMSCKASGYTFTDLYMNWVKQSHGKSLEWIGVINPYNGGTSYNQKFKAKATLTVDKSSITAYMELNSLTSEDSAVYYCARGDSIYVMDYWGQGTSVTVSS VL: not shown |  |  |  |  |  |  |  | 2.3 OD450 | 2180 MFI
7 | hybridoma clone 97B8G8D12 (antibody, V domains shown, murine hybridoma supernatant; gave no antibody in small-batch production) VH: EVQLQQSGPVLVKPGASVKMSCKASGYTFTDLYMNWVKQSHGKSLEWIGVINPYNGGTSYNQKFKAKATLTVDKSSITAYMELNSLTSEDSAVYYCARGDSIYVMDYWGQGTSVTVSS VL: not shown | 3.06 OD450 | 3.37 OD450 | 0.13 OD450 |  |  |  | 358 MFI |  | 
8 | hybridoma clone 107A11F1B7 (antibody, V domains shown, murine hybridoma supernatant; re-named CP04; also called CP04) VH: EVQLQQSGPVLVKPGASVKMSCKASGYTFTDLYMNWLKQSHGKRLEWIGVINPYNGGTSYNQKFKGKATLTVDKSSSTAYMDLNSLTSEDSAVYYCARGDSIYVMDYWGQGTSFTVSS VL: not shown | 3.53 OD450 | 3.5 OD450 |  |  |  |  | 5180 MFI |  | 
9 | hybridoma clone 107A9A4D2 (antibody, V domains shown, murine hybridoma supernatant) VH: EVQLQQSGPVLVKPGASVKMSCKASGYTFTDLYMNWLKQSHGKRLEWIGVINPYNGGTSYNQKFKGKATLTVDKSSSTAYMDLNSLTSEDSAVYYCARGDSIYVMDYWGQGTSFTVSS VL: not shown | 3.51 OD450 | 3.58 OD450 |  |  |  |  | 4650 MFI |  | 
10 | hybridoma antibody 143D6F4 (mAb011) (antibody, IgG2b, V domains shown, murine, IgG2b,κ; re-named CP07; also called CP07) VH: EVQLQQSGPVLVKPGASVKMSCKASGYTFTDYSLNWVKQSHGKSLEWIGVVNPYNGGTSHNQKFKGKATLTVDKSSSTAYMELNSLTSEDSAVYYCARPDSIYVMDYWGQGTSVTVSS VL: not shown | 3.26 OD450 | 3.4 OD450 | 0.2 OD450 | 0.15 nM | 0.17 nM | no binding | 1510 MFI |  | 
11 | hybridoma antibody 151A9A4 (mAb012) (antibody, IgG2b, V domains shown, murine, IgG2b,κ; re-named CP08; also called CP08) VH: EVQLQQSGPVLVKPGASVKMSCKASGYTFTDYSLNWVKQSHGKSLEWIGVVNPYNGGTTYNQKFKGKATLTVDKSSSTAYMELNSLTSEDSAVYYCARPDSIYVMDSWGQGTSVTVSS VL: not shown | 3.34 OD450 | 3.4 OD450 | 0.24 OD450 | 0.17 nM | 0.15 nM | no binding | 2920 MFI |  | 
12 | chimeric antibody 107A9A4D2VH/VL-2 (antibody, human IgG1, kappa, V domains shown, IgG1,κ chimeric antibody, HEK 293T supernatant; also called 107A9A4D2VH paired with 107A9A4D2VL-2) VH: EVQLQQSGPVLVKPGASVKMSCKASGYTFTDLYMNWLKQSHGKRLEWIGVINPYNGGTSYNQKFKGKATLTVDKSSSTAYMDLNSLTSEDSAVYYCARGDSIYVMDYWGQGTSFTVSS VL: not shown |  |  |  |  |  |  |  | 2.45 OD450 | 525 MFI
13 | hybridoma antibody 152D8E8 (mAb013) (antibody, IgG1, V domains shown, murine, IgG1,κ; re-named CP09; also called CP09) VH: QVTLKESGPGILQSSQTLSLTCSFSGFSLNTSGMGVNWIRQSSGKDLEWLAHIYWNDDKRYNPSLKSRLTISKDTSRNQVFLRITSVDATDTATYFCCRSRLSFDYWGHGTTLTVSS VL: DIKMTQSPSSMYVSLGERVTITCKASQDINRNLSWFQQKPGKSPKTLIYRANRLVDGVPLRFSGSGSGQDYSLTISSLEYEDMGIYYCLQYDEFPRTFGGGTKLEIK |  | 3.31 OD450 | 0.23 OD450 |  |  | no binding |  |  | 
14 | hybridoma antibody 109C5F3C1 (mAb010) (antibody, V domains shown, murine; re-named CP06; also called CP06) VH: EVQLQQSGPVLVKPGASVKMSCKVSGYTFTDYYMNWVKQSHGKSLEWIGVITPYNGANRYNQKFKGKATLTVDKSSSTAYMEVSSLTSEDSAVYYCARGDSIYVMDYWGQGTSVIVSS VL: not shown | 3.57 OD450 | 3.41 OD450 | 0.57 OD450 | 0.18 nM | 0.18 nM | no binding | 2890 MFI |  | 
15 | hybridoma antibody 113B3F12 (mAb008) (antibody, IgG2b, V domains shown, murine hybridoma antibody, IgG2b,κ) VH: EVQLQQSGPVLVKPGASVKMSCKASGYTFTDYYMNWVKQSHGKSLEWIGVINPYNGGTDYNQKFKGKATLTVDKSSSTAYMELNSLTSEDSAVYYCARRRESYGTSYQGAYFDSWGQGTTLTVSS VL: DIQMTQTTSSLSASLGDRVTISCRASQDISNYLNWYQQKPDGTVKLLIYYTSRLHSGVPSRFSGSGSGTDYSLSISDLEQEDIATYFCQQVITLPWTFGGGTKLEIK | 3.9 OD450 | 0.18 OD450 | 0.14 OD450 | 0.15 nM |  |  | 3890 MFI |  | 
16 | hybridoma antibody 6G10-1D7 (mAb001) (antibody, IgG1, V domains shown, tested as supernatant and purified; also called CP01) VH: EVQLQQSGPELVKPGASMKISCKASDYSFTDYIMTWVKQSHGKNLEWIGLINPYNGGTTYNQKFKDKATFTVDKSSTTAYMDLLSLTSEDSAVYYCARRGITTDYYTMDYWGQGTSVTVSS VL: DIVMTQSQRFMSTSVGDRVSITCKASQSVGTAVAWYQQTPGQFPKLLIYSTSNRYTGVPDRFTGSGSGTDFTLTISNMQSEDLADYFCQQYSTYPLTFGSGTKLELK | 2.9 OD450 | 1.95 OD450 | 0.08 OD450 | 0.034 nM |  | no binding | 3880 MFI |  | 
17 | chimeric antibody of hybridoma 6G10-1D7 (antibody, human IgG1, kappa, V domains shown, IgG1,κ chimeric antibody, HEK 293T supernatant) VH: EVQLQQSGPELVKPGASMKISCKASDYSFTDYIMTWVKQSHGKNLEWIGLINPYNGGTTYNQKFKDKATFTVDKSSTTAYMDLLSLTSEDSAVYYCARRGITTDYYTMDYWGQGTSVTVSS VL: DIVMTQSQRFMSTSVGDRVSITCKASQSVGTAVAWYQQTPGQFPKLLIYSTSNRYTGVPDRFTGSGSGTDFTLTISNMQSEDLADYFCQQYSTYPLTFGSGTKLELKR |  |  |  |  |  |  |  | 2.35 OD450 | 3470 MFI
